# Laboratory results taken from patent US20240082304A1 (published 2024).
# T1: CT83 peptide on HLA-A2 (human)
# T1 peptide: KLVELEHTL
# Target: T1, CT83 peptide on HLA-A2
# Test: killing
binder,measurement,value
"A2-CT83 TCR (TCR, V domains shown) Valpha: GEDVEQSLFLSVREGDSSVINCTYTDSSSTYLYWYKQEPGAGLQLLTYIFSNMDMKQDQRLTVLLNKKDKHLSLRIADTQTGDSAIYFCAEKSGYSGAGSYQLTFGKGTKLSVIP Vbeta: SAVISQKPSRDICQRGTSLTIQCQVDSQVTMMFWYRQQPGQSLTLIATANQGSEATYESGFVIDKFPISRPNLTFSTLTVSNMSPEDSSIYLCSVQDSEAFFGQGTRLTVV",binding result,recognises
